Test results reported in PMC5679652, “Broadening the functionality of a J-protein/Hsp70 molecular chaperone system” (PLoS Genetics, 2017).
Blank lines part the entries; values can stand above or below the molecule they belong to. Where no end group is shown, it is not given here. Flc = fluorescein label

Assays:
[1] = target: T1, Ssa1 (wild type, His-tagged) (S. cerevisiae, UniProt P10591 1-642)
T1 construct: Ssa1, cytosolic Hsp70 of Saccharomyces cerevisiae; Ssa1(1-532) is said to lack 110 residues, so the whole protein has 642 residues; Assayed with 1 mM ADP (anisotropy) or as a preformed 32P-ATP complex (ATPase); also called WT Ssa1; His-Ssa

[2] = target: T2, Ssa1 R444E (His-tagged) (S. cerevisiae, UniProt P10591 1-642, R444E); assay: cell-based or functional assay
[3] = target: T3, Ssa1 K446E (His-tagged) (S. cerevisiae, UniProt P10591 1-642, K446E); assay: cell-based or functional assay
[4] = target: T1, Ssa1 (wild type, His-tagged); assay: fluorescence polarisation; dissociation kinetics: 5 uM Ssa1, 10 nM F-P5, 1 mM ADP brought to equilibrium, then unlabeled P5 added to 40 uM; read every 10 s; percent of the signal at t = 0; conditions: both partners purified
[5] = target: T2, Ssa1 R444E (His-tagged); assay: fluorescence polarisation; equilibrium titration: 10 nM F-P5 with Ssa1 in 2-fold steps from 2.4 nM to 5 uM, 1 mM ADP, buffer A (25 mM Hepes-KOH pH 7.5, 100 mM KCl, 11 mM MgOAc), 4% glycerol, 0.005% NP-40, 24 hr at room temperature (23°C); one site saturation fit; conditions: both partners purified
[6] = target: T3, Ssa1 K446E (His-tagged); assay: as above; conditions: both partners purified
[7] = target: T1, Ssa1 (wild type, His-tagged); assay: as above; conditions: both partners purified

T1 sequence (P10591 whole entry): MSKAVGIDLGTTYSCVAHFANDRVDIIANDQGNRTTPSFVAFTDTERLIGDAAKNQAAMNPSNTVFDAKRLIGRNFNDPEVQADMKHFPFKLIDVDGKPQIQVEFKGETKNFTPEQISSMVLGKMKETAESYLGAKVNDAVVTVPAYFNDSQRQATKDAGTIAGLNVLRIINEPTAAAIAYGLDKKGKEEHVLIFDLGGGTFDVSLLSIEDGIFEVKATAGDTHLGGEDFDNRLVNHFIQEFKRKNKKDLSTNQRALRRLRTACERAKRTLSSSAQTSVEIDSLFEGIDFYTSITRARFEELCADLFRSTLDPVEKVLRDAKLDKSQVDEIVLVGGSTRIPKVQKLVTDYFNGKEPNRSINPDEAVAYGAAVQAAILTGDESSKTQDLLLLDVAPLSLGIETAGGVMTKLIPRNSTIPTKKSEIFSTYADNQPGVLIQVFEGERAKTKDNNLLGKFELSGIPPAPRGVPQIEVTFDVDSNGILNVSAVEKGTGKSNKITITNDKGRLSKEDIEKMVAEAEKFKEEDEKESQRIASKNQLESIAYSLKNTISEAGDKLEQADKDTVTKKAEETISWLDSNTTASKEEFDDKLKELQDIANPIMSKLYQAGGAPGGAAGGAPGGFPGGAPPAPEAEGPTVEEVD
T2 sequence (P10591 whole entry R444E): as the sequence (P10591 whole entry) above, with R444E counted along it
T3 sequence (P10591 whole entry K446E): as the sequence (P10591 whole entry) above, with K446E counted along it

- stimulation of single-turnover ATPase activity of the 32P-ATP/Ssa1 complex, compared with WT Ydj1 (% less active than WT) [1]: 20
Molecule: Ydj1 G70N (from UniProt P25491 1-409) (natural protein)

- fold stimulation of single-turnover ATPase activity of the 32P-ATP/Ssa1 complex by peptide P5, relative to basal activity (four P5 concentrations; value at 133 uM) [2]: 1.7 fold
- fold stimulation of single-turnover ATPase activity of the 32P-ATP/Ssa1 complex by peptide P5, relative to basal activity (four P5 concentrations; value at 133 uM) [3]: 2.8 fold
- binding result [4]: binds
B1: peptide P5 (unlabeled) (peptide)
peptide: CALLLSAPRR
notes: peptide substrate P5; also called unlabeled P5; peptide substrate; source: bought: Sigma Chemical, St. Louis, MO

- binding result [5]: binds
- binding result [6]: binds
- binding result [7]: binds
B2: fluorescein-labeled P5 peptide (peptide)
peptide: Flc-CALLLSAPRR
notes: peptide substrate P5; also called F-P5; source: bought: Sigma Chemical, St. Louis, MO
